Experimental data: PMC4417169, “Significance of ligand interactions involving Hop2-Mnd1 and the RAD51 and DMC1 recombinases in homologous DNA repair and XX ovarian dysgenesis” (Nucleic Acids Research, 2015)
Where a chain is given by its changes, count along the chain named.

T1: Hop2-Mnd1 (KYK+RYY) (mouse, UniProt O35047 1-217; Q8K396 1-205, K63A | Y65A | K67A | R64A | Y70A | Y71A)
T1 construct: Hop2, mouse; Mnd1, mouse; also called Hop2-KYK-Mnd1-RYY; Hop2-KYK/Mnd1-RYY; source: E. coli, purified
T1 sequence (looked up) 1: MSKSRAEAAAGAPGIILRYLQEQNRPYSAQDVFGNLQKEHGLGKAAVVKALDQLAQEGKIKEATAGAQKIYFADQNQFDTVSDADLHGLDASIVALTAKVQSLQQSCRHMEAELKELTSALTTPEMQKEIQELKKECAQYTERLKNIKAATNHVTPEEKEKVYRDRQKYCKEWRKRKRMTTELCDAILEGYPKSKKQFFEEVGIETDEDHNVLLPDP
T1 sequence (looked up) 2: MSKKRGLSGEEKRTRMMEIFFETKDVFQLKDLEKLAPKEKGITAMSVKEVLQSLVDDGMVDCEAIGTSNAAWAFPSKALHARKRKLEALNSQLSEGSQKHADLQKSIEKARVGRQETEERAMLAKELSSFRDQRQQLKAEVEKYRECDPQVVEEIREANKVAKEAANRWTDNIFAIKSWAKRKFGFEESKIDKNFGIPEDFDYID

T2: Hop2-Mnd1 (R64A/Y70A/Y71A) (mouse, UniProt O35047 1-217; Q8K396 1-205, R64A | Y70A | Y71A)
T2 construct: Hop2, mouse; Mnd1, mouse; also called Hop2-Mnd1-RYY; source: E. coli, purified
T2 sequence (looked up) 1: T1 sequence (looked up) 1 with A63K, A65Y, A67K
T2 sequence (looked up) 2: T1 sequence (looked up) 2

T3: Hop2 (R176A)-Mnd1 (mouse, UniProt O35047 1-217; Q8K396 1-205, R176A)
T3 construct: Hop2, mouse; Mnd1, mouse; source: E. coli, purified
T3 sequence (looked up) 1: T1 sequence (looked up) 1 with A63K, A65Y, A67K, R176A
T3 sequence (looked up) 2: T1 sequence (looked up) 2 with A64R, A70Y, A71Y

T4: Hop2 (K63A/Y65A/K67A)-Mnd1 (mouse, UniProt O35047 1-217; Q8K396 1-205, K63A | Y65A | K67A)
T4 construct: Hop2, mouse; Mnd1, mouse; also called Hop2-KYK-Mnd1; source: E. coli, purified
T4 sequence (looked up) 1: T1 sequence (looked up) 1
T4 sequence (looked up) 2: T1 sequence (looked up) 2 with A64R, A70Y, A71Y

T5: Hop2 (G203N)-Mnd1, MBP-tagged (mouse, UniProt O35047 1-217; Q8K396 1-205, G203N)
T5 construct: Hop2, mouse; Mnd1, mouse; also called the G203N mutant; source: E. coli, purified; not shown: MBP, N-terminal, kept
T5 sequence (looked up) 1: T1 sequence (looked up) 1 with A63K, A65Y, A67K, G203N
T5 sequence (looked up) 2: T1 sequence (looked up) 2 with A64R, A70Y, A71Y

B1: human RAD51 (natural protein, UniProt Q06609 1-339, looked up)
chain: MAMQMQLEANADTSVEEESFGPQPISRLEQCGINANDVKKLEEAGFHTVEAVAYAPKKELINIKGISEAKADKILAEAAKLVPMGFTTATEFHQRRSEIIQITTGSKELDKLLQGGIETGSITEMFGEFRTGKTQICHTLAVTCQLPIDRGGGEGKAMYIDTEGTFRPERLLAVAERYGLSGSDVLDNVAYARAFNTDHQTQLLYQASAMMVESRYALLIVDSATALYRTDYSGRGELSARQMHLARFLRMLLRLADEFGVAVVITNQVVAQVDGAAMFAADPKKPIGGNIIAHASTTRLYLRKGRGETRICKIYDSPCLPEAEAMFAINADGVGDAKD
notes: RAD51, human; source: E. coli, purified
B2: (His)6-tagged Mnd1 (natural protein, mouse, UniProt Q8K396 1-205, looked up)
chain: T1 sequence (looked up) 2 with A64R, A70Y, A71Y
notes: Mnd1, mouse, without Hop2; also called purified Mnd1 alone; source: purified
B3: Hop2^126-217-Mnd1 (complex, mouse)
chain 1: MQKEIQELKKECAQYTERLKNIKAATNHVTPEEKEKVYRDRQKYCKEWRKRKRMTTELCDAILEGYPKSKKQFFEEVGIETDEDHNVLLPDP
chain 2: T1 sequence (looked up) 2 with A64R, A70Y, A71Y
notes: Hop2, mouse, residues 126-217; Mnd1, mouse; source: E. coli, purified
B4: human DMC1 (natural protein, UniProt Q14565 1-340, looked up)
chain: MKEDQVVAEEPGFQDEEESLFQDIDLLQKHGINVADIKKLKSVGICTIKGIQMTTRRALCNVKGLSEAKVDKIKEAANKLIEPGFLTAFEYSEKRKMVFHITTGSQEFDKLLGGGIESMAITEAFGEFRTGKTQLSHTLCVTAQLPGAGGYPGGKIIFIDTENTFRPDRLRDIADRFNVDHDAVLDNVLYARAYTSEHQMELLDYVAAKFHEEAGIFKLLIIDSIMALFRVDFSGRGELAERQQKLAQMLSRLQKISEEYNVAVFVTNQMTADPGATMTFQADPKKPIGGHILAHASTTRISLRKGRGELRIAKIYDSPEMPENEATFAITAGGIGDAKE
notes: DMC1, human; source: insect cells infected with a recombinant DMC1 baculovirus, purified
B5: Hop2-Mnd1^100-205 (complex, mouse)
chain 1: T1 sequence (looked up) 1 with A63K, A65Y, A67K
chain 2: HADLQKSIEKARVGRQETEERAMLAKELSSFRDQRQQLKAEVEKYRECDPQVVEEIREANKVAKEAANRWTDNIFAIKSWAKRKFGFEESKIDKNFGIPEDFDYID
notes: Hop2, mouse; Mnd1, mouse, residues 100-205; source: E. coli, purified

How the values were obtained:
Conditions in all cases: both partners purified
Hop2-Mnd1 (KYK+RYY) = target: T1, Hop2-Mnd1 (KYK+RYY); assay: pull-down; affinity pulldown of RAD51 with the DNA binding mutants of Hop2-Mnd1; only summarized in Table 1; resin and tag not told
[1] = target: T2, Hop2-Mnd1 (R64A/Y70A/Y71A); assay: as above
Hop2 (R176A)-Mnd1 = target: T3, Hop2 (R176A)-Mnd1; assay: as above
[2] = target: T4, Hop2 (K63A/Y65A/K67A)-Mnd1; assay: as above
[3] = target: T5, Hop2 (G203N)-Mnd1, MBP-tagged; assay: pull-down; amylose resin captures MBP-tagged Hop2-Mnd1 or mutant incubated with RAD51 or DMC1; buffer A without imidazole; 4 C; SDS-PAGE, Coomassie
human RAD51 [4] = target: B1; assay: pull-down; Ni2+-NTA resin captures (His)6-Hop2-Mnd1 or (His)6-Mnd1 (5 uM) incubated with RAD51 (8 uM); buffer A (25 mM Tris-HCl pH 7.5, 10% glycerol, 0.5 mM EDTA, 0.01% Igepal, 10 mM imidazole), 50-250 mM KCl, with or without 2 mM MgCl2 and 2 mM ATP (or other nucleotides); 4 C; SDS-PAGE, Coomassie
human RAD51 [5] = target: B1; assay: pull-down; affinity pulldown of RAD51 with truncation mutants of Hop2-Mnd1 (Supplementary Figure S3b, c); resin and tag not told

B1: binds (Hop2-Mnd1 (KYK+RYY)); binds [1]; binds (Hop2 (R176A)-Mnd1). B1: binds [2]; binds [3].

B2: binds (human RAD51 [4]).

B3: binds (human RAD51 [5]).

B4: binds [3].

B5: binds (human RAD51 [5]).
